Assay results from US20130041017A1, “SIRNA-BASED THERAPY OF FIBRODYPLASIA OSSIFICANS PROGRESSIVA (FOP)” (The Trustees of the University of Pennsylvania, published 2013).

Molecular target: T1, ACVR1 Arg206His mutant (R206H; c.617G>A), mutated Activin A type I receptor protein (human)
T1 chain: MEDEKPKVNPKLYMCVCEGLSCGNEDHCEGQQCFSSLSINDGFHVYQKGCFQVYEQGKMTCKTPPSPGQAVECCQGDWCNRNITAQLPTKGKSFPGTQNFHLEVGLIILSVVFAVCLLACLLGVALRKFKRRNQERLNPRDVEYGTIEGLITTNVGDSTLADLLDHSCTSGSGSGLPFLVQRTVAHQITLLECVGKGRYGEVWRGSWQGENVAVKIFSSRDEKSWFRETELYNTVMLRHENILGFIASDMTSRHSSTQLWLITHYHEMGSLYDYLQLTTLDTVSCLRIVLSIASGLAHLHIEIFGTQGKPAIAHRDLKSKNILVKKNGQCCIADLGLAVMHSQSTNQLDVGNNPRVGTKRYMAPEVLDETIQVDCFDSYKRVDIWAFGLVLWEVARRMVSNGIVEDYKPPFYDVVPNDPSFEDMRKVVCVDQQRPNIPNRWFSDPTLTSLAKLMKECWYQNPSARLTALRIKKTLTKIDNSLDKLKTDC
Experiment: cell-based or functional assay

B1: Human recombinant BMP4 (ligand)
chain: SPKHHSQRARKKNKNCRRHSLYVDFSDVGWNDWIVAPPGYQAFYCHGDCPFPLADHLNSTNHAIVQTLVNSVNSSIPKACCVPTELSAISMLYLDEYDKVVLKNYQEMVVEGCGCR
**Q.** B1 was tested. Which “phosphorylated Smad1/5/8 (pSmad1/5/8) by immunoblotting” value did it give?
**A.** Its value is roughly 2 fold.
